Laboratory results from patent publication US9878016B2, “IGFBP-3 derivatives and uses thereof” (INSERM (Institut National de la Sante et de la Recherche …, priority 2011, dated 2018).
Each block holds one molecule with its values, some of them ahead of it.

Experiments:
IGF-II [1] = biological target: T1, IGF-II (Homo sapiens, UniProt P01344); assay: Affinity for IGF-II: competition with 125I-IGF-1 tracer, Scatchard analysis; format: binding; settings: association constant, IGF-II competitor
T1 construct: before undergoing regulated endoproteolytic cleavage to the mature form (IGF-II)
T1 sequence (P01344 25-91 limits assumed): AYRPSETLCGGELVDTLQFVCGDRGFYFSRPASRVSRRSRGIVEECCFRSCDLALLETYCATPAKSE
Experimental: (§1) The affinity of wild type (wt) IGFBP-3 and of mutated IGFBP-3 (mini-IGFBP-3) for IGF-I and IGF II was determined using ^125I-IGF-1 as a radioactive tracer. Various concentrations of IGF-I and IGF-II were used as competitors and affinity constants were determined by Scatchard analysis.

IGF-I = IGF-I (Homo sapiens, UniProt P05019); assay: Affinity for IGF-I: competition with 125I-IGF-1 tracer, Scatchard analysis; format: binding; settings: association constant, IGF-I competitor
IGF-I, sequence (P05019 49-118 limits assumed): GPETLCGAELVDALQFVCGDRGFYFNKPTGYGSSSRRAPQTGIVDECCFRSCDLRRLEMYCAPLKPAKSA
Experimental: as §1

MMP-7 = biological target: T2, MMP-7 (Homo sapiens, UniProt P09237); assay: Proteolytic digestion by activated MMP-7 (SDS-PAGE); format: biochemical; settings: substrate 20 μM, 1:10 molar ratio, enzyme activated with 1 mM APMA
T2 sequence (P09237 95-267): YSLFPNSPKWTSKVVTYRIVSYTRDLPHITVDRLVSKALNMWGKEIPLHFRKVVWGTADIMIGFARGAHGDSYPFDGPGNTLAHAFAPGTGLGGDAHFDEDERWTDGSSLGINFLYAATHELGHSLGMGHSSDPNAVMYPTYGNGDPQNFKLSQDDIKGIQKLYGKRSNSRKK
Experimental: (§2) The ability of mini-IGFBP-3 to resist proteolytic digestion by Matrix Metalloproteinases, MMP-7 and MMP-9, is also currently being tested. MMP-7 and MMP-9 are expressed by tumor cells and are present in higher quantity in the bloodstream of cancer patients where they contribute to the degradation of native, endogenous IGFBP-3. In the experiments, these enzymes are first activated with 1 mM APMA. Mini-IGFBP-3 and full length IGFBP-3 are compared as substrate for activated MMP-7 and MMP-9. Concentrations of each substrate (20 μM) are incubated in a 1:10 molar ratio with either MMP-7 or MMP-9. At the end of the incubation period, proteins are analyzed by SDS-PAGE to evaluate their respective cleavage into fragments.

MMP-9 = MMP-9 (Homo sapiens, UniProt P14780); assay: Proteolytic digestion by activated MMP-9 (SDS-PAGE); format: biochemical; settings: substrate 20 μM, 1:10 molar ratio, enzyme activated with 1 mM APMA
MMP-9, sequence (P14780 107-707 limits assumed): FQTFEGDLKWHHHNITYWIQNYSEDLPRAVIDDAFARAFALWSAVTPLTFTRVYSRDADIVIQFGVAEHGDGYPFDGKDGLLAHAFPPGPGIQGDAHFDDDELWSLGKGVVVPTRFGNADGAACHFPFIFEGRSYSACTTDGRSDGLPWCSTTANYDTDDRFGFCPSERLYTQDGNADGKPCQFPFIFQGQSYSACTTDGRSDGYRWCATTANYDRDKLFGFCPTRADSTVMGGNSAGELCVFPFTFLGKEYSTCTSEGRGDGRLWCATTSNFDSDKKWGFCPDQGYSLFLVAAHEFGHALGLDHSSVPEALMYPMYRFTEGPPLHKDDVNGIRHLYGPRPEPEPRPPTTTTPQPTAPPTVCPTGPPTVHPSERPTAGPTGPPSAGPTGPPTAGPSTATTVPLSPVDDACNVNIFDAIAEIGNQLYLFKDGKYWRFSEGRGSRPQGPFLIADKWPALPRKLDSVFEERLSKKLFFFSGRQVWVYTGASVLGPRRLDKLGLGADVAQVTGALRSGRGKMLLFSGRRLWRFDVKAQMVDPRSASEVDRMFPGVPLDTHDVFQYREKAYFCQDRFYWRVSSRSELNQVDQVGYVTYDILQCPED
Experimental: as §2

[2] = system: HT-29 human colorectal tumor xenografts; assay: Tumor signalling in mice bearing HT-29 xenografts, 12 hours treatment (western immunoblots); format: in vivo, NMRI-nu mice; settings: three i.p. injections (340 μg) every 3 hours, sacrifice at 12 hours; for Erk1/2 phosphorylation in tumors / Rb phosphorylation in tumors: vs untreated
Experimental: Thus, HT-29 xenografts were established in nude mice. After tumor had reached a critical size, mice were treated with either mini-IGFBP-3 or mini-IGFBP3-Fc in three i.p. injections separated by a three hours interval and mice were sacrificed after […]. Tumor MEK and PI3Kinase signalling pathways were assessed in these tumors, together with the cell cycle regulator Rb, by evaluating the phosphorylation status of AKT, ERK-1/2 and Rb, respectively, using western immunoblots.
More specifically, 2.5×10^6 HT-29 cells were injected s.c. into each flank of 5 weeks old NMRI-nu mice. Tumors were allowed to grow up to a volume of 500 mm^3 before mice were randomized into individual treatment groups (n=2) and received three i.p. injections (340 μg) of either mini-IGFBP-3 or mini-IGFBP-3-Fc every 3 hours. The control group was injected with saline. Twelve (12) hours after treatment initiation, mice were sacrificed and excised tumors were cut in half. One half was snap frozen in liquid nitrogen and stored at −80° C. The other half was fixed in Finfix, included in paraffin and processed for immuno-histochemistry. For Western blot analysis, tumors were homogenized in lysis buffer (10 mM Tris HCl at pH 7.4, 150 mM NaCl, 1% Nonidet P-40, 0.1% sodium deoxycholate, 0.1% SDS, 1 mM EDTA, 2 mM sodium orthovanadate, protease inhibitor tablet [Roche Molecular Biochemicals]). After centrifugation, protein concentrations were determined by the Bio-Rad protein assay (Bio-Rad). Fifteen micrograms of protein were run on a 4%-12% SDS-PAGE gel (Invitrogen). Membranes were blocked in 5% nonfat milk in TBS-T overnight at 4° C., washed with TBS-T, incubated with anti-mouse or anti-rabbit horseradish peroxidase-conjugated secondary antibodies in TBS-T for 1 hour at room temperature, and washed in TBS-T. The signal was visualized using an enhanced chemiluminescence solution and exposed to film. The blotting antibodies used wherein phosphor-Akt, Akt, mitogen-activated protein kinase ERK1/2, phosphor-mitogen-activated protein kinase pErk1/2, Rb (BD Biosciences), β-actin and G3PDH; antibodies were from Cell Signalling Technology unless otherwise stated.

[3] = Decay of concentrations in mouse plasma after intravenous injection (ELISA); format: in vivo; settings: mice, 250 μg intravenously
Experimental: 250 μg of the indicated protein were injected intravenously to groups (n=3) of mice at time zero. Blood samples were drawn at the indicated time points, centrifuged and kept frozen. Concentrations of injected proteins were determined by an in-house sandwich type ELISA using anti-human IGFBP-3 specific monoclonal antibodies.
To pave the ground for future assessments of mini-IGFBP-3 in vivo activity, mini-IGFBP-3 and its derivatives were injected into mice. When measured using human-specific IGFBP-3 ELISA test, several kinetics could be observed.

[4] = system: AKT phosphorylation in A549 (lung cancer); assay: AKT phosphorylation, A549 cells; format: cell-based, human; settings: different incubation times
Experimental: (§3) These effects are compared to those of ppp (see Example 5 for experimental details). FIG. 11(B) is a graph showing the effects of mini-IGFBP-3-Fc on the phosphorylation of AKT in MiaPaCa-2 cells (upper left), HT-29 cells (upper right) and A549 cells (lower left) and of […] on the phosphorylation of AKT in A549 cells (lower right) after different incubation times, as indicated (see Example 5 for experimental details).
(§4) The inhibiting activity of mini-IGFBP-3-Fc on AKT phosphorylation was also assessed in various human tumor cell lines: MiaPaCa-2 (pancreatic cancer), HT-29 (colon cancer) and A549 (lung cancer). The inhibiting activity of mini-IGFBP-3 on AKT phosphorylation was assessed A549 cells.

[5] = system: AKT phosphorylation in HT-29 (colon cancer); assay: AKT phosphorylation, HT-29 cells; format: cell-based, human; settings: different incubation times
Experimental: as §3, §4

HuH7 = assay: Cell viability assay (WST-1), HuH7; format: cell-based, human; settings: 100 nM, 72 hours, 10% FCS
Experimental: (§5) The effects of mini-IGFBP-3-Fc on the proliferation and survival of three human tumor cell lines, Hep3B and HuH7—hepatocellular carcinoma cell lines) and INA-6 (multiple myeloma cell line), were studied. For each cell line cultivated in the presence of 10% fetal calf serum (FCS), the effect of mini-IGFBP-3-Fc were compared to the effect picropodophyllin (ppp), a compound known to interfere with the IGF1-R signalling pathway. A cell viability assay was performed 72 hours after initiation of the culture in the presence of mini-IGFVP-3-Fc (100 nM) or ppp (1 μM) in a medium containing 10% FCS by adding WST-1 and monitoring formazan conversion.

[6] = system: AKT phosphorylation in MiaPaCa-2 (pancreatic cancer); assay: AKT phosphorylation, MiaPaCa-2 cells; format: cell-based, human; settings: different incubation times
Experimental: as §3, §4

INA-6 = assay: Cell viability assay (WST-1), INA-6; format: cell-based, human; settings: 100 nM, 72 hours, 10% FCS
Experimental: as §5

[7] = system: phosphorylation of AKT in INA-6 myeloma cells; assay: AKT phosphorylation, INA-6 myeloma cells (western blot); format: cell-based; settings: 100 nm; 3, 6 or 24 hours; 10% FCS
Experimental: The INA-6 myeloma cell line was grown in the presence of 10% FCS. The cells were incubated with mini-IGFBP-3 (100 nm) or ppp (1 μM) 3, 6 or 24 hours. After incubation, the cells were lysed using a lysis buffer, and cell extracts (normalized for protein contents) were loaded on SDS-PAGE gel, transferred onto nitrocellulose membrane, which was further incubated with a monoclonal antibody directed against the […] residue of the AKT protein. The membrane was also re-probed after stripping with an anti-actin antibody to check for equal loading.

Hep3B = assay: Cell viability assay (WST-1), Hep3B; format: cell-based, human; settings: 100 nM, 72 hours, 10% FCS
Experimental: as §5

IGF-II [8] = biological target: T1, IGF-II; assay: Solid-phase assay: displacement of biotinylated IGF-II tracer from immobilized binding protein; settings: increasing free IGF-II
Source text: FIG. 10(A) is a graph showing the relative binding affinity of mini-IGFBP-3 and mini-IGFBP-3-Fc towards IGF-II. The solid phase assay used measured the ability of increasing concentrations of free IGF-II to displace binding of the biotinylated IGF-II tracer to mini-IGFBP-3 and mini-IGFBP-3-Fc immobilized on a support (See Example 5 for experimental details). FIG. 10(B) is a graph showing the effects of mini-IGFBP-3-Fc on proliferation and survival of three human tumor cell lines cultivated in the presence of 10% FCS: Hep3B, HuH7 and INA-6. The effects of mini-IGFBP-3-Fc are compared to the effects of picropodophyllin (ppp), a compound known to interfere with IGF-R signalling pathway (see Example 5 for experimental details).
A solid-phase assay was used to study the binding affinity of mini-IGFBP-3-Fc for IGF-II. In this assay, two binding proteins (mini-IGFBP-3 and mini-IGFBP-3-Fc) were immobilized to a support. They were incubated with the biotinylated IGF-II tracer, and then increasing concentrations of IGF-II were added.

affinity constant for IGF-II (IGF-II [1]): 3.14e+10 M⁻¹ | affinity constant for IGF-I (IGF-I): 2.4e+10 M⁻¹ | cleavage by MMP-7 (MMP-7): resists this proteolytic attack | cleavage by MMP-9 (MMP-9): resists this proteolytic attack
Molecule: mini-IGFBP-3: Human IGFBP-3 mutein: 85 central-domain residues (95 to 179) replaced by 15 amino acid spacer GGGSGGSGGSGGSGG (SEQ ID NO: 4)
AktS473 phosphorylation in tumors [2]: abolished | mitotic index compared to untreated tumors [2]: −12% | Erk1/2 phosphorylation in tumors [2]: considerably decreased | Rb phosphorylation in tumors [2]: decreased | fraction of the initial dose that left the bloodstream in the first 3-4 hours [3]: 80-90% | remaining fraction that disappeared very slowly until 48 hours [3]: 10-20% | AKT phosphorylation in A549 cells [4]: able to block the AKT phosphorylation

affinity constant for IGF-II (IGF-II [1]): 3.5e+10 M⁻¹ | affinity constant for IGF-I (IGF-I): 2.96e+10 M⁻¹ | cleavage by MMP-7 (MMP-7): digested | cleavage by MMP-9 (MMP-9): digested
Molecule: wt IGFBP-3: Recombinant wild type human IGFBP-3 with hexahistidine N-terminal extension, comparator [reference compound]

apparent affinity for IGF-II compared with unfused mini-IGFBP-3 (IGF-II [8]): higher apparent affinity
B1: mini-IGFBP-3-Fc: Immunoadhesin fusion protein joining mini-IGFBP-3 to the Fc fragment of human IgG1 (protein)
chain: GASSAGLGPVVRCEPCDARALAQCAPPPAVCAELVREPGCGCCLTCALSEGQPCGIYTERCGSGLRCQPSPDEARPLQALLDGRGLCVNASAVSGGGSGGSGGSGGSGGETEYGPCRREMEDTLNHLKFLNVLSPRGVHIPNCDKKGFYKKKQCRPSKGRKRGFCWCVDKYGQPLPGYTTKGKEDVHCYSMQSK
modifications: left off: a dimerising Fc or GST
notes: Immunoadhesin fusion protein joining mini-IGFBP-3 to the Fc fragment of human IgG1
AKT phosphorylation in HT-29 cells [5]: able to block the AKT phosphorylation | proliferation and survival of HuH7 (HuH7): anti-proliferative activity | AktS473 phosphorylation in tumors [2]: abolished | mitotic index compared to untreated tumors [2]: −12% | Erk1/2 phosphorylation in tumors [2]: considerably decreased | Rb phosphorylation in tumors [2]: decreased | AKT phosphorylation in MiaPaCa-2 cells [6]: able to block the AKT phosphorylation | half-life of serum concentration ([3]; single slope kinetics): about 12 hours | AKT phosphorylation in A549 cells [4]: able to block the AKT phosphorylation | proliferation and survival of INA-6 (INA-6): anti-proliferative activity | phosphorylation of AKT in INA-6 cells [7]: inhibiting effects | proliferation and survival of Hep3B (Hep3B): anti-proliferative activity
